Measurements reported in paper PMC7565926, “Oncogenic Orphan Nuclear Receptor NR4A3 Interacts and Cooperates with MYB in Acinic Cell Carcinoma” (Cancers, 2020).

Biological target: HA-tagged NR4A3 (UniProt Q92570 1-626)
Assay: cell-based or functional assay

Chain of HA-tagged NR4A3 (Q92570 whole entry): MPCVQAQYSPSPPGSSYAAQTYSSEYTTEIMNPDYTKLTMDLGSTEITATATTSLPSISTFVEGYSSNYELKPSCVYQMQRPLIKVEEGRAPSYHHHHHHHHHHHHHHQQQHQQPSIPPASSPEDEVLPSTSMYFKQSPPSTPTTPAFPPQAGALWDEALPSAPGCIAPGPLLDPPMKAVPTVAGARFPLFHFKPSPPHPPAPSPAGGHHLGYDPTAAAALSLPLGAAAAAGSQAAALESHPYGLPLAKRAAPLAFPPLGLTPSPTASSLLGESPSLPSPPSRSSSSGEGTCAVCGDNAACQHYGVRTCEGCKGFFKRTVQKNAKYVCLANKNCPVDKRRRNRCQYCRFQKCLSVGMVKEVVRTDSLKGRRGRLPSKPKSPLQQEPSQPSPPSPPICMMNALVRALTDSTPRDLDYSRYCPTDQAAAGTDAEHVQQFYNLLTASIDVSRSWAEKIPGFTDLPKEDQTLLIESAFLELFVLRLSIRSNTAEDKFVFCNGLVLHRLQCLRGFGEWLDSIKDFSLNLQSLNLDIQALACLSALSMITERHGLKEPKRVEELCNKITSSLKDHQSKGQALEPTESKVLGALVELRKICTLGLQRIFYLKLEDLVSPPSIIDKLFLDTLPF

activation of the NurRE luciferase reporter in HeLa cells on co-expression of full-length Myb with NR4A3 (NR4A3 by itself 6-fold): 27 fold
B1: Myb (natural protein)
chain: not shown
